Results published in patent publication US20080286311A1.
One block for each molecule: values may come before it.

Assays:
[1] = molecular target: basophils from house dust mite allergic patients
[2] = molecular target: serum IgE of profilin-sensitised (Phl p 12-allergic) patients; test: fluid phase inhibition: sera of six patients preincubated with 10 µg Phl p 12, then ELISA on plate-bound Phl p 12
[3] = molecular target: serum IgE of profilin-sensitised (Phl p 12-allergic) patients; test: fluid phase inhibition: sera of six patients preincubated with 10 µg MP12, then ELISA on plate-bound Phl p 12
[4] = molecular target: basophils (granulocytes) from Phl p 12-allergic patients

CD 203c expression on basophils [1]: 10 fold reduced
Molecule: rDer p 2 hybrid (aa 54-129+1-53) (from UniProt P49278)

B1: Phl p 12 wild-type (timothy grass pollen profilin) (protein)
chain: MSWQTYVDEHLMCEIEGHHLASAAILGHDGTVWAQSADFPQFKPEEITGIMKDFDEPGHLAPTGMFVAGAKYMVIQGEPGAVIRGKKGAGGITIKKTGQALVVGIYDEPMTPGQCNMVVERLGDYLVEQGM
mean % inhibition of IgE binding to Phl p 12 [2]: 86%

histamine release (fold reduction) [4]: 1000
B2: MP12 (reshuffled Phl p 12 derivative) (protein)
chain: MEPGAVIRGKKGAGGITIKKTGQALVGIYDEPMTPGQCNMVVERLGDYLVEQGMMSWQTYVDEHLMCEIEGHHLASAAILGHDGTVWAQSADFPQFKPEEITGIMKDFDEPGHLAPTGMFVAGAKYMVIQGHHHHHH
mean % inhibition of IgE binding to Phl p 12 [3]: 31.2%
